Results: publication doi:10.1101/2020.10.23.352708

Key:
Assay in all cases: flow cytometry on cells
CXCR4 L41A (human) = CXCR4 L41A (human) (UniProt P61073)
CXCR4 D97E (human) = CXCR4 D97E (human) (UniProt P61073)
CXCR4 V112L (human) = CXCR4 V112L (human) (UniProt P61073)

A fold increase of the IC50 against wild-type CXCR4 (CXCR4 L41A (human)) of 20 fold, a fold reduction of the binding affinity against wild-type CXCR4 (CXCR4 D97E (human)) of 20 fold and a fold increase of the IC50 against wild-type CXCR4 (CXCR4 V112L (human)) of 6 fold were found for “Endogenous Peptide Inhibitor of CXCR4 (EPI-X4)” in this work.
